Laboratory results: article PMC2700308

Target: gp120 prebound to sCD4 (HIV-1, subtype B, strain YU2 | human) (UniProt P35961)
Assay: ITC

S22 peptide, 22 amino acid tyrosine-sulfated peptide corresponding to the CCR5 N-terminus (from UniProt P51681 1-22)
Kd: 2200 nM
